The numbers were not newly measured in patent US5189019A, “Antistasin derived anticoagulant protein” (Merck & Co., Inc., priority 1990, dated 1993), which cites them from elsewhere.

The target of the data set is Factor Xa (Homo sapiens, UniProt P00742). The following applies: Tuszynski et al. 1987; Nutt et al. 1988.
Sequence of Factor Xa (P00742 235-488 limits assumed): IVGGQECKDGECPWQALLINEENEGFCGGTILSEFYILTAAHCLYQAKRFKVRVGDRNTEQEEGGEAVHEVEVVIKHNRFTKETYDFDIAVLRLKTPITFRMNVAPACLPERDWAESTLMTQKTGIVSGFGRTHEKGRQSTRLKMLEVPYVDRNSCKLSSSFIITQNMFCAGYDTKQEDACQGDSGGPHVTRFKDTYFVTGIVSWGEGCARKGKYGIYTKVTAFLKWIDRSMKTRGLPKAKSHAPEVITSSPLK
Sequence of Factor Xa (P00742 41-179 partner limits assumed): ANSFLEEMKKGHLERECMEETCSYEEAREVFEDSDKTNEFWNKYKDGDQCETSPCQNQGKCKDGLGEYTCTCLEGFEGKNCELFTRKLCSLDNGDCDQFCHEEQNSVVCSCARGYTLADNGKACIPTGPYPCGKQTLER

B1: Antistasin: 15 kDa cysteine rich protein found in the salivary gland of the Mexican leech, Haementeria officinalis (protein, UniProt P15358 18-136, looked up)
Antistasin: QGPFGPGCEEAGCPEGSACNIITDRCTCSGVRCRMHCPHGFQRSRYGCEFCKCRLEPMKATCDISECPEGMMCSRLTNKCDCKIDINCRKTCPNGLKRDKLGCEYCECRPKRKLIPRLS
Turning to B1, the “inhibition of Factor Xa in the human blood coagulation cascade” value is “potent inhibitor”.
